Measurements from article PMC7279403, “Zygotic Vsx1 Plays a Key Role in Defining V2a Interneuron Sub-Lineage by Directly Repressing tal1 Transcription in Zebrafish”.

Legend:
[1] = target: T1, Vsx1 homeodomain (Vsx1-Homeodomain-His) (zebrafish, UniProt O42250 132-224); assay: competition; 500-fold or more excess against biotin site 14 probe; no competition; LightShift Chemiluminescent EMSA kit (Pierce), 6% native PAGE; binding buffer as in He et al. [23], salt, pH and temperature not given; settings: protein: recombinant; tags: His in the Results; label: none
T1 sequence (O42250 132-224): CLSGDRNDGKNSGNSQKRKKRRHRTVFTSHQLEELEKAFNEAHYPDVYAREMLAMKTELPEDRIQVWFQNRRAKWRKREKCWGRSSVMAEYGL

[2] = target: T1, Vsx1 homeodomain (Vsx1-Homeodomain-His); assay: competition; 500-fold excess against biotin site 12 probe; only weak complex left; LightShift Chemiluminescent EMSA kit (Pierce), 6% native PAGE; binding buffer as in He et al. [23], salt, pH and temperature not given; settings: protein: recombinant; tags: His in the Results; label: none
[3] = target: T1, Vsx1 homeodomain (Vsx1-Homeodomain-His); assay: EMSA; LightShift Chemiluminescent EMSA kit (Pierce), 6% native PAGE; binding buffer as in He et al. [23], salt, pH and temperature not given; settings: protein: recombinant; tags: His in the Results; label: biotin 5' end (labeled probe)
[4] = target: T1, Vsx1 homeodomain (Vsx1-Homeodomain-His); assay: competition; 500-fold excess against biotin site 14 probe; only weak complex left; LightShift Chemiluminescent EMSA kit (Pierce), 6% native PAGE; binding buffer as in He et al. [23], salt, pH and temperature not given; settings: protein: recombinant; tags: His in the Results; label: none
[5] = target: T1, Vsx1 homeodomain (Vsx1-Homeodomain-His); assay: competition; 500-fold or more excess against biotin site 12 probe; no competition; LightShift Chemiluminescent EMSA kit (Pierce), 6% native PAGE; binding buffer as in He et al. [23], salt, pH and temperature not given; settings: protein: recombinant; tags: His in the Results; label: none

B1: tal1 site 14 mutant competitor (TAATTA to TCGATA) (dsDNA)
DNA 1: ACGCAGATCATCGATAGGCGTTTGATC
DNA 2: GATCAAACGCCTATCGATGATCTGCGT
binding result [1]: no binding

B2: tal1 site 12 unlabeled wild-type competitor (dsDNA)
DNA 1: TGGCCGCATAATTAATTTCTGATTGAG
DNA 2: CTCAATCAGAAATTAATTATGCGGCCA
binding result [2]: binds

B3: tal1 binding site 14 probe (dsDNA)
DNA 1: ACGCAGATCATAATTAGGCGTTTGATC
DNA 2: GATCAAACGCCTAATTATGATCTGCGT
binding result [3]: binds

B4: tal1 site 14 unlabeled wild-type competitor (dsDNA)
DNA 1: ACGCAGATCATAATTAGGCGTTTGATC
DNA 2: GATCAAACGCCTAATTATGATCTGCGT
binding result [4]: binds

B5: tal1 binding site 12 probe (dsDNA)
DNA 1: TGGCCGCATAATTAATTTCTGATTGAG
DNA 2: CTCAATCAGAAATTAATTATGCGGCCA
binding result [3]: binds

B6: tal1 site 12 mutant competitor (TAATTA to TCGATA) (dsDNA)
DNA 1: TGGCCGCATCGATCGATTCTGATTGAG
DNA 2: CTCAATCAGAATCGATCGATGCGGCCA
binding result [5]: no binding
